Source: paper PMC2409314, “Expression of zebrafish pax6b in pancreas is regulated by two enhancers containing highly conserved cis-elements bound by PDX1, PBX and PREP factors”

Key:
Test in all cases: EMSA; 2 ug nuclear extract or 1 ul ivt protein, 0.1 ng 32P ds oligo, 1 ug poly(dI-dC); antiserum preincubation 15 min at room temperature; buffer, salt and pH not given (by reference)
[1] = molecular target: PBX1a (long isoform);PREP1;PDX1 (STF-1) (;;, UniProt P41778;P55347;P52947 1-430;1-436;1-283, ||); settings: protein: ivt;ivt;recombinant; tags: ;;; copies: 1;1;1; label: 32P (Klenow); only top strand given; 5' GATC end, Klenow labelled
Chain of PBX1a (long isoform);PREP1;PDX1 (STF-1) (P52947 whole entry, canonical isoform, one chain of several): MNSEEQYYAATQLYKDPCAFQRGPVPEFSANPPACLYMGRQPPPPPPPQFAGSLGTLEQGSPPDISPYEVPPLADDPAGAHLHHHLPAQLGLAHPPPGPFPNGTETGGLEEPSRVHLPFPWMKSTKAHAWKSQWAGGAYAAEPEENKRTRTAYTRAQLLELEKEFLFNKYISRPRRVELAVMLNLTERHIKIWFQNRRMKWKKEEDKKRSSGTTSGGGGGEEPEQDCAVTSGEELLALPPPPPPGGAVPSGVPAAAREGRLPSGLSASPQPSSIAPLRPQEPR

[2] = molecular target: T1, PBX1a (long isoform);PREP1 (;, UniProt P41778;P55347 1-430;1-436, |); settings: protein: ivt;ivt; tags: ;; copies: 1;1; label: 32P (Klenow); only top strand given; 5' GATC end, Klenow labelled
T1 sequence 1: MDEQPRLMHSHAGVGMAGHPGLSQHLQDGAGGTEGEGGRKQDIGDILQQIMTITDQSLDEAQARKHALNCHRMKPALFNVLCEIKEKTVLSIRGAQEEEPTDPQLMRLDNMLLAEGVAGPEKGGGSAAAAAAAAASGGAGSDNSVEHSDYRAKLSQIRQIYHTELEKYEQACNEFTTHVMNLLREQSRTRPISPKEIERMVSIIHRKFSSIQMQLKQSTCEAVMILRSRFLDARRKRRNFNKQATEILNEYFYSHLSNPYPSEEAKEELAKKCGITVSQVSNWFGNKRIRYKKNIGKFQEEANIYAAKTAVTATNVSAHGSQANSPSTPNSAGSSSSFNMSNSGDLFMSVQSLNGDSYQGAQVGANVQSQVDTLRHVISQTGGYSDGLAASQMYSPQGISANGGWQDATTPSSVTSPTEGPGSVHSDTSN
T1 sequence 2: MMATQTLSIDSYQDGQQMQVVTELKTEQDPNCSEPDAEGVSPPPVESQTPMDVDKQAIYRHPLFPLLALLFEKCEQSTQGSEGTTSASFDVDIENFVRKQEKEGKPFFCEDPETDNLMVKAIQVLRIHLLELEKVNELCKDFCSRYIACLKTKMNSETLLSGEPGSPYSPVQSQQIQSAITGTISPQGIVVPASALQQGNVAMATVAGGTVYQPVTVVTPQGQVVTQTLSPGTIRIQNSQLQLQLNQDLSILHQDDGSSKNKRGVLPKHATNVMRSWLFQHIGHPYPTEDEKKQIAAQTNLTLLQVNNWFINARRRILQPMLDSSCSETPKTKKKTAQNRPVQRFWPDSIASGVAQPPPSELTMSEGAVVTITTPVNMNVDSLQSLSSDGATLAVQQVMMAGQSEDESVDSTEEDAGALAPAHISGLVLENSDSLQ

[3] = molecular target: PDX1 (STF-1) (UniProt P52947 1-283); settings: protein: recombinant; label: 32P (Klenow); only top strand given; 5' GATC end, Klenow labelled
Chain of PDX1 (STF-1) (P52947 whole entry): as the sequence (P52947 whole entry, canonical isoform, one chain of several) above

B1: PA1b (dsDNA)
DNA 1: GATCGCATCACGATCAATCACAGCGCT
DNA 2: AGCGCTGTGATTGATCGTGATGCGATC
**Q.** Does B1 bind [1]?
**A.** Result: binds

**Q.** Does B1 bind [2]?
**A.** Result: binds

B2: PC3b (dsDNA)
DNA 1: GATCTAGCTCTTAATTGTGGTT
DNA 2: AACCACAATTAAGAGCTAGATC
**Q.** Does B2 bind [3]?
**A.** Result: binds
